Reference: patent US10087225B2, “Formulation of MK2 inhibitor peptides” (MOERAE MATRIX, INC., priority 2015, dated 2018)

Tests used:
Assay in all cases: Kinase Profiling Assay
Assay type in all cases: biochemical
Details in all cases: for % activity: 100 μM
[1] = biological target: T1, Bmx(h) (Homo sapiens, UniProt P51813)
T1 sequence (P51813 1-675): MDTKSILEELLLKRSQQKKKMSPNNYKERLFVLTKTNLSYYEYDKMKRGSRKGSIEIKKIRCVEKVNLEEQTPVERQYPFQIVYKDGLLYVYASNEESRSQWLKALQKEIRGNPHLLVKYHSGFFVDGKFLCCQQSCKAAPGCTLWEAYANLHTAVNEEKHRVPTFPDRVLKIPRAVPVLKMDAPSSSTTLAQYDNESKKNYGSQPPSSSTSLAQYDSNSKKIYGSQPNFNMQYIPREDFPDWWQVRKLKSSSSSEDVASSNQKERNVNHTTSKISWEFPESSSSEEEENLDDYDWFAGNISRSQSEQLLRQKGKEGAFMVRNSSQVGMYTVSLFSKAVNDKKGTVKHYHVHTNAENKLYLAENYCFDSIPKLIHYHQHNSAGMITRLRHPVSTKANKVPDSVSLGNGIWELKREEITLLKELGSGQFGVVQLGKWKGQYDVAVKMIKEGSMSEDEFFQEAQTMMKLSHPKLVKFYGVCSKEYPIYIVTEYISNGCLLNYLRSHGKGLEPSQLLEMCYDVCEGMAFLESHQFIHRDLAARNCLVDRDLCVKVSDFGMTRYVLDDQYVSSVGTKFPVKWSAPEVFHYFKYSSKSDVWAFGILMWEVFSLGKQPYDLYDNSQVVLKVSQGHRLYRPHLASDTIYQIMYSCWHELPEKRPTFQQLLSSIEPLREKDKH

[2] = biological target: T2, EphB2(h) (Homo sapiens, UniProt P29323)
T2 sequence (P29323 19-1055): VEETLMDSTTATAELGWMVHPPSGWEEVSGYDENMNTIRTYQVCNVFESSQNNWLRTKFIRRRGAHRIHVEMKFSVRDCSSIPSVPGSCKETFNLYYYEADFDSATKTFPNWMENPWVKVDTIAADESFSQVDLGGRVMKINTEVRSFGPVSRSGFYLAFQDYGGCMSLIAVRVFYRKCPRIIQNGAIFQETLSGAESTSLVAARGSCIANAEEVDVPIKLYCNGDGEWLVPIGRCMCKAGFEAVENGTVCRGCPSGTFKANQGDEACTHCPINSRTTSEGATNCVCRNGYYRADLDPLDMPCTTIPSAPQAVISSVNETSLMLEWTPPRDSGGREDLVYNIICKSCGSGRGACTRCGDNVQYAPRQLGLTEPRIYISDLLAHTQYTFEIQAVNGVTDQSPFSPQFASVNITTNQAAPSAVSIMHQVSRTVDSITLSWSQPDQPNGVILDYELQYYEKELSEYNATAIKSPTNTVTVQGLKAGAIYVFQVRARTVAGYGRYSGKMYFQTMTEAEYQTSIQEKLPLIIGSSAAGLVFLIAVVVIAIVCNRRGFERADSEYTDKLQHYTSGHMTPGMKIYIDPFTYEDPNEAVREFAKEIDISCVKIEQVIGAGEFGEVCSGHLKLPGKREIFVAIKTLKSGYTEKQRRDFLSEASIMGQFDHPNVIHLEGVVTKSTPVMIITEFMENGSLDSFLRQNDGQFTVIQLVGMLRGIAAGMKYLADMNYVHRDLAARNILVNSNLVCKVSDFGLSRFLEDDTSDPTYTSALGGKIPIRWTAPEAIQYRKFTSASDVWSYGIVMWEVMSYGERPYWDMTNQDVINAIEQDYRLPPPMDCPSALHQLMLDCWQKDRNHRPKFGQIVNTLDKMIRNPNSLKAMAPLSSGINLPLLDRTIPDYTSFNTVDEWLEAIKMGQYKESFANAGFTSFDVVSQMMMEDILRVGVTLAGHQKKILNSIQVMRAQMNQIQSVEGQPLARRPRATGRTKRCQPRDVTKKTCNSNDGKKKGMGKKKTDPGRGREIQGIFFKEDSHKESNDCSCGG

[3] = biological target: CLK3(h) (Homo sapiens, UniProt P49761)
Sequence of CLK3(h) (P49761 whole entry): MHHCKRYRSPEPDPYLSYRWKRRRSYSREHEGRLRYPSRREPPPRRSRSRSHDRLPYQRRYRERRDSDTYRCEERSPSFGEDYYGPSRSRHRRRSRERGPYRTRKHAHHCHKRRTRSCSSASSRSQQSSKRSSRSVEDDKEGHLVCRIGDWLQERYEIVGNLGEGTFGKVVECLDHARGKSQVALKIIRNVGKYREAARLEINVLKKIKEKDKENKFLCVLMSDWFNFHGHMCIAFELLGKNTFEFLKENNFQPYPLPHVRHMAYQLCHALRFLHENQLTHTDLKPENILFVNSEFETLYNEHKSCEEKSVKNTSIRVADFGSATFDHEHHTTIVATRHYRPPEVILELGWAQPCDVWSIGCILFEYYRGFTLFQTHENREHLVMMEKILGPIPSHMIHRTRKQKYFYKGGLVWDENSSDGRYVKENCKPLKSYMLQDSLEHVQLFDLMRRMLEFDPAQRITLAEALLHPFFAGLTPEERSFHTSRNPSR

[4] = biological target: Met(D1246H)(h) (Homo sapiens, UniProt P08581, D1228H)
[5] = biological target: cSRC(h) (Homo sapiens, UniProt P12931)
[6] = biological target: EGFR(L858R)(h) (Homo sapiens, UniProt P00533, L858R)
[7] = biological target: SAPK2a(T106M)(h) (Homo sapiens, UniProt Q16539, T106M)
Sequence of SAPK2a(T106M)(h) (Q16539 whole entry T106M): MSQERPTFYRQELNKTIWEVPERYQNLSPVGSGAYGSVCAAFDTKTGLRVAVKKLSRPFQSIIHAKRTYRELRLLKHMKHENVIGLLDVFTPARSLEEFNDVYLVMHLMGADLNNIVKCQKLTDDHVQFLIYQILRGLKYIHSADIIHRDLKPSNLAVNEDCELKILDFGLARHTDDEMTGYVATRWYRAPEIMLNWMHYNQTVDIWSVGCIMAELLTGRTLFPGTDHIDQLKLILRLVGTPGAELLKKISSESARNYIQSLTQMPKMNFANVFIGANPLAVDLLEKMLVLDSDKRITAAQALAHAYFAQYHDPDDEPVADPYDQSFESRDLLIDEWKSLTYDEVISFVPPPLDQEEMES

[8] = biological target: MELK(h) (Homo sapiens, UniProt Q14680)
Sequence of MELK(h) (Q14680 whole entry): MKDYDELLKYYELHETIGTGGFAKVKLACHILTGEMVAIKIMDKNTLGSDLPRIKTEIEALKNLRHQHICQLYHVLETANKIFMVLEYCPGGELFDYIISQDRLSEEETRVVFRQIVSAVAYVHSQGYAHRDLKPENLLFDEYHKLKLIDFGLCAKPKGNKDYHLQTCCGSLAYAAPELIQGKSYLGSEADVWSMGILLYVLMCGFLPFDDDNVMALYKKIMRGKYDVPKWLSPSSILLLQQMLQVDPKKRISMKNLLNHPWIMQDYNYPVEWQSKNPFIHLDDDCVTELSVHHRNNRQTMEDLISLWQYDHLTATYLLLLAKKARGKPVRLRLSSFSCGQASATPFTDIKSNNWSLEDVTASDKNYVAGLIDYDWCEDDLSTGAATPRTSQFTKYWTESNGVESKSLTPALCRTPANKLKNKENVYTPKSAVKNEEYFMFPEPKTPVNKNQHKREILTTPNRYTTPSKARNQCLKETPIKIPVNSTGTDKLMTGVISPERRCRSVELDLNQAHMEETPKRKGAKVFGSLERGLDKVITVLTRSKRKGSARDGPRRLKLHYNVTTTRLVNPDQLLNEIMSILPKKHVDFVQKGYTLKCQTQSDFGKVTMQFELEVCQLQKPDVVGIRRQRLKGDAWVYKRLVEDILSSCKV

[9] = biological target: T3, DRAK1(h) (Homo sapiens, UniProt Q9UEE5)
T3 sequence (Q9UEE5 1-414): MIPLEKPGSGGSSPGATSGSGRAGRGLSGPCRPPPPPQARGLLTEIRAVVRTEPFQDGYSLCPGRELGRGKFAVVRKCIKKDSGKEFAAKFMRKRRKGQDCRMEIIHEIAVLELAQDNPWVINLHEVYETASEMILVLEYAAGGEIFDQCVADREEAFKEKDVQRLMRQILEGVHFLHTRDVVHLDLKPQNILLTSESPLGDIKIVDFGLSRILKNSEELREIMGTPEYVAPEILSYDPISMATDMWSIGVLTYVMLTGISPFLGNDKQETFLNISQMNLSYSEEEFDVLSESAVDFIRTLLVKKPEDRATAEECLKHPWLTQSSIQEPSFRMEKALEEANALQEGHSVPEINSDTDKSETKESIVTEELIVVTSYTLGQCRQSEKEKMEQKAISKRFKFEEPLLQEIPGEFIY

[10] = biological target: WNK2(h) (Homo sapiens, UniProt Q9Y3S1)
Sequence of WNK2(h) (Q9Y3S1 whole entry): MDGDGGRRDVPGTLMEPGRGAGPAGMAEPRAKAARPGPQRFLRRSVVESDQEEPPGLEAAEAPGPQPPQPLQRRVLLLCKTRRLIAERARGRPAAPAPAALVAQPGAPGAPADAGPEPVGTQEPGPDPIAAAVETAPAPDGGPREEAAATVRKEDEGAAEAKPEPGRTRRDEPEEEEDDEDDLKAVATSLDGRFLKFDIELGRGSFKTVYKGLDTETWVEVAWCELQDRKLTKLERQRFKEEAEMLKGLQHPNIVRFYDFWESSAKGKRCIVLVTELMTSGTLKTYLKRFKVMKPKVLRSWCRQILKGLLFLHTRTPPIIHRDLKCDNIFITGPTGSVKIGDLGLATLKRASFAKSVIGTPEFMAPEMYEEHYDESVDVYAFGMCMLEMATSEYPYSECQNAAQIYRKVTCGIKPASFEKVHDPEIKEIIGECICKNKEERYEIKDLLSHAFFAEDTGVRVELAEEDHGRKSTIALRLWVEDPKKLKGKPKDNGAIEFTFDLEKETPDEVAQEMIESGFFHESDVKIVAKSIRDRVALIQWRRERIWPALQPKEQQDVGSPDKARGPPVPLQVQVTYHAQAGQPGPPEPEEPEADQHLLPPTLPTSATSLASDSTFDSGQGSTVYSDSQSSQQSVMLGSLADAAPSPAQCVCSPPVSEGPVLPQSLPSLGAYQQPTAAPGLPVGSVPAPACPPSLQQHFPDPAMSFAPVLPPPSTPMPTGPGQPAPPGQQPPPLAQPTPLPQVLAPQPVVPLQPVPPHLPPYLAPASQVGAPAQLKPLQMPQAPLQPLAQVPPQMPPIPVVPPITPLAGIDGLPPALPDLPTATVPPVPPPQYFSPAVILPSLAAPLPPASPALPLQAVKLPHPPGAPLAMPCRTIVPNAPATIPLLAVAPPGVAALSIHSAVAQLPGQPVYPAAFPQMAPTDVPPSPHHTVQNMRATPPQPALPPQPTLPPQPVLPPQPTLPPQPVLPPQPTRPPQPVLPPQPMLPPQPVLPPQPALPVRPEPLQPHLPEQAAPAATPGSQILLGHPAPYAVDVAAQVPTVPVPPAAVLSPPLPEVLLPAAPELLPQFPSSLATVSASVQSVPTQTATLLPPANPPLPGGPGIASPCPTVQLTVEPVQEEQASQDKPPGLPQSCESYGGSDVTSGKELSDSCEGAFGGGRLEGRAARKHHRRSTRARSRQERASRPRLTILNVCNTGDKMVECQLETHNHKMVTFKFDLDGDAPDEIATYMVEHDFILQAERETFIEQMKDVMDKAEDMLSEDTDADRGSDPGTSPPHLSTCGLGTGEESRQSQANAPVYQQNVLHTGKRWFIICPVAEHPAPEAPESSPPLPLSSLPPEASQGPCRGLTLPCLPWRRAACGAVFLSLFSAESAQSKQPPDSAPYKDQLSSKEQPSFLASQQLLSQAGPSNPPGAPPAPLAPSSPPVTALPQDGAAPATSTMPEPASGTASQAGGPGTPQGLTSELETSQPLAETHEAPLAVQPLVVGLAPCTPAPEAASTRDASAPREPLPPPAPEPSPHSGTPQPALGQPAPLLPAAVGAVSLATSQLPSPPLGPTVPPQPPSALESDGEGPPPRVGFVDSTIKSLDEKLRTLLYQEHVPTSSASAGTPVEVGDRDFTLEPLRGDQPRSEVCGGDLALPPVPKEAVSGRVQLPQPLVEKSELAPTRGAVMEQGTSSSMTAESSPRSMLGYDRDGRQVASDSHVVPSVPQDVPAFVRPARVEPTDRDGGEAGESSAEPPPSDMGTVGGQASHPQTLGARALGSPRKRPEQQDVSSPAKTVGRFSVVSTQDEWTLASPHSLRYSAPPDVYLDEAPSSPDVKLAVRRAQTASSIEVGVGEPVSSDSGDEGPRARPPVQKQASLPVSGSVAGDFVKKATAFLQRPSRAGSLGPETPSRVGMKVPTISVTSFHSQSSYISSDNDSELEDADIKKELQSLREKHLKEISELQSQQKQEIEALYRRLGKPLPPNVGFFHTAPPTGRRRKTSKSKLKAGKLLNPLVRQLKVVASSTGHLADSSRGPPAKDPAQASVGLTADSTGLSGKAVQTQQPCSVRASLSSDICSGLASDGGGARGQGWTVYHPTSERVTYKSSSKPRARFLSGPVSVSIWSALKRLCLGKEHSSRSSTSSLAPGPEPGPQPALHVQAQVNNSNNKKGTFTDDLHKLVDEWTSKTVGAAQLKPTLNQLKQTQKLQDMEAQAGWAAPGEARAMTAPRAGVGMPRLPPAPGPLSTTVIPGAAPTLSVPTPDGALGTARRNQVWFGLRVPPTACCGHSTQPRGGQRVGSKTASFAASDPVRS

Row | Substance | activity at 100 µM [1] | activity at 100 µM [2] | activity at 100 µM [3] | activity at 100 µM [4] | activity at 100 µM [5] | activity at 100 µM [6] | activity at 100 µM [7] | activity at 100 µM [8] | activity at 100 µM [9] | activity at 100 µM [10] | % activity [1] | % activity [2] | % activity [3] | % activity [4] | % activity [5] | % activity [6] | % activity [7] | % activity [8] | % activity [9] | % activity [10]
1 | H-YARAAARQARAKALARQLGVAA-OH [MMI-0100] | 62% | 68% | 108% | 99% | 70% | 76% | 101% | 74% | 47% | 95% |  |  |  |  |  |  |  |  |  | 
2 | HRRIKAWLKKIKALARQLGVAA (Mammalian) [MMI-0500] |  |  |  |  |  |  |  |  |  |  | 45% | 70% | 76% | 150% | 30% | 26% | 32% | 0% | 8% | 8%
3 | YARAAARQARAKALNRQLGVA (Mammalian) [MMI-0200] |  |  |  |  |  |  |  |  |  |  | 76% | 128% | 76% | 139% | 32% | 120% | 100% | 59% | 34% | 94%
